{
  "source": "paper PMC4148960",
  "about": "“Sox2 acts as a transcriptional repressor in neural stem cells” (BMC Neuroscience, 2014)",
  "molecular_target": "T1, GST-fused Grg1 (UniProt Q62440 1-770)",
  "T1 construct": "Grg1 (groucho-related gene 1); cloned into pGEX4T1; No purification before mixing with Sox2 is described; the fusion was collected on glutathione-sepharose after the incubation; also called GST-Grg1; source: E. coli BL21, induced with IPTG, bacteria lysed",
  "T1 sequence (Q62440 whole entry, the tested form may be a part)": "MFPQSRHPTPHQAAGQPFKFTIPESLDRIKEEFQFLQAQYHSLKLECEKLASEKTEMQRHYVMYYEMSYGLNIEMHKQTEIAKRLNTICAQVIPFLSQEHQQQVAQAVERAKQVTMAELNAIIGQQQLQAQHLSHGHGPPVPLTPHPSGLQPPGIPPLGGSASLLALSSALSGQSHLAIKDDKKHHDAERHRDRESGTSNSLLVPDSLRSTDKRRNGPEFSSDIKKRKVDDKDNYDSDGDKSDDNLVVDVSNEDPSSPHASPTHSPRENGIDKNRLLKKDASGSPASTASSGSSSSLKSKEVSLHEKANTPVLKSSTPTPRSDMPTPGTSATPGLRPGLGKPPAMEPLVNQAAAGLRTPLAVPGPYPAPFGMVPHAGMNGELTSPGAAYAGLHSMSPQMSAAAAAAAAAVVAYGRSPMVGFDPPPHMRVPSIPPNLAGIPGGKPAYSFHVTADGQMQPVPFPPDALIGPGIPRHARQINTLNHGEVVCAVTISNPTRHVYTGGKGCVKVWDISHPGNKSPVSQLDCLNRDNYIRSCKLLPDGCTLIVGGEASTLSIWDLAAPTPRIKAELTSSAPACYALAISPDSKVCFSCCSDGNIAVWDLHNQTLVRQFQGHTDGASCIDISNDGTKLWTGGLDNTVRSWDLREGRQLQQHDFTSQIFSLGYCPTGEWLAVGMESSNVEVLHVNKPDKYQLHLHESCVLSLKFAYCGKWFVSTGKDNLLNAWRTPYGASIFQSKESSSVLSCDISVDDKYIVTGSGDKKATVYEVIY",
  "assay": "pull-down; data not shown: amounts of radiolabelled Sox2 pulled down by GST-Grg1 and GST-Grg5 compared",
  "settings": "partners not purified",
  "data": [
    {"binder": "radiolabelled Sox2 (in vitro translated) (natural protein, S^35-labelled, Sox2, wild type; also called S^35-labelled Sox2; WT Sox2; source: in vitro translated (TNT T7 kit, Promega)) not shown", "values": [
      {"measurement": "fold more Sox2 pulled down than by Grg5", "value": "~4", "unit": "fold"}
    ]}
  ]
}
